Target: T1, KSHV G protein-coupled receptor (kGPCR), stably expressed in HUVEC (Kaposi's sarcoma-associated herpesvirus …, UniProt Q98146 1-342)
T1 construct: GPCR homologue of Kaposi's sarcoma-associated herpesvirus (kGPCR); Probably HA-tagged like the other constructs, but no tag and no primary antibody is named for the proximity ligation assay; also called HUVEC/kGPCR
T1 sequence: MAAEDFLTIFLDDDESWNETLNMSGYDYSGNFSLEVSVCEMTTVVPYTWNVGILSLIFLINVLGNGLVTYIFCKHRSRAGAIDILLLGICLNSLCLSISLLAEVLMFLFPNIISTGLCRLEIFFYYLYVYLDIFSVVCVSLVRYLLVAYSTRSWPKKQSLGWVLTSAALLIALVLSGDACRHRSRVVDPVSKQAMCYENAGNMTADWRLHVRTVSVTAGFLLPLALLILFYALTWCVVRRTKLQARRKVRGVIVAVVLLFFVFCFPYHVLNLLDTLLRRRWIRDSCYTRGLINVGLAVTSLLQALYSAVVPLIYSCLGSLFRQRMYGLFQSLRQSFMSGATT
Test: proximity ligation; Duolink in situ kit on fixed HUVEC-Vector or HUVEC-kGPCR stable cells; spots counted in more than 100 cells of each group
Details: partners not purified

B1: sarco/endoplasmic reticulum calcium ATPase 2 (SERCA2), endogenous in HUVEC (enzyme, human (endogenous in HUVEC), UniProt P16615 1-1042, looked up)
chain: MENAHTKTVEEVLGHFGVNESTGLSLEQVKKLKERWGSNELPAEEGKTLLELVIEQFEDLLVRILLLAACISFVLAWFEEGEETITAFVEPFVILLILVANAIVGVWQERNAENAIEALKEYEPEMGKVYRQDRKSVQRIKAKDIVPGDIVEIAVGDKVPADIRLTSIKSTTLRVDQSILTGESVSVIKHTDPVPDPRAVNQDKKNMLFSGTNIAAGKAMGVVVATGVNTEIGKIRDEMVATEQERTPLQQKLDEFGEQLSKVISLICIAVWIINIGHFNDPVHGGSWIRGAIYYFKIAVALAVAAIPEGLPAVITTCLALGTRRMAKKNAIVRSLPSVETLGCTSVICSDKTGTLTTNQMSVCRMFILDRVEGDTCSLNEFTITGSTYAPIGEVHKDDKPVNCHQYDGLVELATICALCNDSALDYNEAKGVYEKVGEATETALTCLVEKMNVFDTELKGLSKIERANACNSVIKQLMKKEFTLEFSRDRKSMSVYCTPNKPSRTSMSKMFVKGAPEGVIDRCTHIRVGSTKVPMTSGVKQKIMSVIREWGSGSDTLRCLALATHDNPLRREEMHLEDSANFIKYETNLTFVGCVGMLDPPRIEVASSVKLCRQAGIRVIMITGDNKGTAVAICRRIGIFGQDEDVTSKAFTGREFDELNPSAQRDACLNARCFARVEPSHKSKIVEFLQSFDEITAMTGDGVNDAPALKKAEIGIAMGSGTAVAKTASEMVLADDNFSTIVAAVEEGRAIYNNMKQFIRYLISSNVGEVVCIFLTAALGFPEALIPVQLLWVNLVTDGLPATALGFNPPDLDIMNKPPRNPKEPLISGWLFFRYLAIGCYVGAATVGAAAWWFIAADGGPRVSFYQLSHFLQCKEDNPDFEGVDCAIFESPYPMTMALSVLVTIEMCNALNSLSENQSLLRMPPWENIWLVGSICLSMSLHFLILYVEPLPLIFQITPLNVTQWLMVLKISLPVILMDETLKFVARNYLEPGKECVQPATKSCSFSACTDGISWPFVLLIMPLVIWVYSTDTNFSDMFWS
notes: SERCA2 of human umbilical vein endothelial cells; source: endogenous, HUVEC, in fixed cells
- fold of proximity ligation fluorescent spots over control HUVEC cells: > 10 fold
